The values below come from publication PMC11194110, “Single-molecule imaging reveals a direct role of CTCF’s zinc fingers in SA interaction and cluster-dependent RNA recruitment” (Nucleic Acids Research, 2024).

Data set [1] concerns CTCF WT (human). In words: single-molecule DNA curtains (TIRF). The note with it: 300 mM NaCl wash; DNA curtains: CTCF 10 nM (ZF9-CT 50 nM, ZF4-7 200 nM) or SA 100 nM; load at 50 mM NaCl, wash at 300 mM NaCl; buffer, pH and temperature not given in material.
Data set [2] relates to CTCF WT (human). In words: single-molecule DNA curtains lifetime. The settings on record: DNA curtains: CTCF 10 nM (ZF9-CT 50 nM, ZF4-7 200 nM) or SA 100 nM, load at 50 mM NaCl, wash at 300 mM NaCl, buffer, pH and temperature not given in material; for binding signal (min (lifetime)): 300 mM NaCl wash, photobleaching corrected.
The subject of data set [3] is CTCF WT;SA1 (human;human?). The data set can be described thus: single-molecule DNA curtains (TIRF). The settings on record: preincubated 10 nM CTCF, 100 nM SA1; 300 mM NaCl wash; DNA curtains: CTCF 10 nM (ZF9-CT 50 nM, ZF4-7 200 nM) or SA 100 nM; load at 50 mM NaCl, wash at 300 mM NaCl; buffer, pH and temperature not given in material.
Data set [4] deals with CTCF WT;SA2 (human;human?). The data set can be described thus: single-molecule DNA curtains (TIRF). The settings on record: preincubated 10 nM CTCF, 100 nM SA2; 300 mM NaCl wash; DNA curtains: CTCF 10 nM (ZF9-CT 50 nM, ZF4-7 200 nM) or SA 100 nM; load at 50 mM NaCl, wash at 300 mM NaCl; buffer, pH and temperature not given in material.
For data set [5], the system named is CTCF ΔRBR (ΔRBR+ΔZF1,10,11) (human). The data set can be described thus: single-molecule DNA curtains lifetime. The settings on record: 300 mM NaCl wash; CBS enrichment similar to WT; DNA curtains: CTCF 10 nM (ZF9-CT 50 nM, ZF4-7 200 nM) or SA 100 nM; load at 50 mM NaCl, wash at 300 mM NaCl; buffer, pH and temperature not given in material.
Data set [6] has as its system T1, CTCF ZF4-7 del1-350;del461-727 (human).
T1 sequence: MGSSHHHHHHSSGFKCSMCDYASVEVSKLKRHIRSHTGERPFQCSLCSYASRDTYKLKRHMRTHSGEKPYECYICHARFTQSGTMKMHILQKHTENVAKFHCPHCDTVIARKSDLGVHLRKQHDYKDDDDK
In words: single-molecule DNA curtains lifetime. The note with it: not enriched on CBSs; DNA curtains: CTCF 10 nM (ZF9-CT 50 nM, ZF4-7 200 nM) or SA 100 nM; load at 50 mM NaCl, wash at 300 mM NaCl; buffer, pH and temperature not given in material.

The test system of another data set is T2, CTCF ZF9-CT (human).
T2 sequence: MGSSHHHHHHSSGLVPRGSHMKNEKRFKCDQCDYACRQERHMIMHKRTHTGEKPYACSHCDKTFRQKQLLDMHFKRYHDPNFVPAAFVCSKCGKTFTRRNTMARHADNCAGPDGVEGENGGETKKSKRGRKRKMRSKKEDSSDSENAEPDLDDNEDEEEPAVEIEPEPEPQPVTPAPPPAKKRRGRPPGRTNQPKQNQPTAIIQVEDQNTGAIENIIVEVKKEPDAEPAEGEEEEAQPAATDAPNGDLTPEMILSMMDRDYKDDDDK
The data set can be described thus: single-molecule DNA curtains lifetime. The settings on record: not enriched on CBSs (negative enrichment); prefers AT-rich DNA; DNA curtains: CTCF 10 nM (ZF9-CT 50 nM, ZF4-7 200 nM) or SA 100 nM; load at 50 mM NaCl, wash at 300 mM NaCl; buffer, pH and temperature not given in material.

In data set [7] the target is CTCF WT (human CCCTC-binding factor, full-length) (human) (UniProt P49711). In words: single-molecule photobleaching step counting on DNA curtains; labeled CTCF on λ-DNA at 50 mM NaCl without prior removal of unspecifically bound CTCF, 25 ng/μl 100 bp Cy3-RNA added; bleaching steps counted at positions of captured RNA; both lasers at 140 mW.
Data set [8] deals with CTCF ΔNC (truncation mutant missing both CTCF termini, containing all 11 ZFs) (human). The description is as above.
The target in data set [9] is T3, CTCF WT (human CCCTC-binding factor, full-length) (human, UniProt P49711 1-727, fluorescent dye (AF568, Atto 643 or Alexa Fluor 660) on the Halo-tag through a chloroalkane linker; unlabeled in the SA transcription experiments).
T3 construct: 11 zinc fingers and two unstructured termini; also called AF-568-CTCF-WT; AF568-CTCF; source: High Five (Hi5) insect cells, purified (Ni-NTA, heparin, Superose 6); not shown: Halo, N-terminal, kept
T3 sequence (looked up): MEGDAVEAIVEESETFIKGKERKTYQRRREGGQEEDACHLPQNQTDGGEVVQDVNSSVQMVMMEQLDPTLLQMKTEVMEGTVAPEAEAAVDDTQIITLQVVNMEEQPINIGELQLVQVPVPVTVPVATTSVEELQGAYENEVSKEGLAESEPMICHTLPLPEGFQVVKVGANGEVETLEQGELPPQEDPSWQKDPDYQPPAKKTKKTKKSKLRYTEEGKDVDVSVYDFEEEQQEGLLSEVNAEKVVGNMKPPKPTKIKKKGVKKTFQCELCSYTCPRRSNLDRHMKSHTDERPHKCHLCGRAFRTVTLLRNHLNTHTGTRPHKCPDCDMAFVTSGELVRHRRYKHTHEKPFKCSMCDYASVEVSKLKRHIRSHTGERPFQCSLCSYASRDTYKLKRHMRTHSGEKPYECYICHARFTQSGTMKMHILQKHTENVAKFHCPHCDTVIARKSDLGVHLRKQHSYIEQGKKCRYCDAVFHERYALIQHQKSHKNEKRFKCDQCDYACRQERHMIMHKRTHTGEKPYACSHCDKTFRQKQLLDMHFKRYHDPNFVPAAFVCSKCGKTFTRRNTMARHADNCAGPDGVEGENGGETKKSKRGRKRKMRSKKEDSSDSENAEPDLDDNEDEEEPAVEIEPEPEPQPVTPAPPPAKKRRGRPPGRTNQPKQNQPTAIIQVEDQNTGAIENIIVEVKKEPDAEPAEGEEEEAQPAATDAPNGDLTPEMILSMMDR
The data set can be described thus: single-molecule DNA curtains (TIRF microscopy), combined loading; 100 or 400 nM SA-LD655 preincubated with 10 nM CTCF in CTCF 100 buffer (40 mM Tris pH 7.5, 100 mM NaCl, 1 mM MgCl2, 1 mg/ml BSA, 1 mM DTT) 5 min at RT; 30 s on λ-DNA with 4× CBSs in 50 mM NaCl, then 3 min (lifetimes: up to 15 min) in 300 mM NaCl; SA read at CBS-bound CTCF (enrichment, lifetime). The settings on record: both partners purified.

1xT7-1xCBS λ-DNA: the binding signal (fold enrichment on CBS) with CTCF WT (human) [1] was 7. Further, the binding signal (min (lifetime)) with CTCF WT (human) [2] stood at 50.
As to 2xT7-4xCBSs λ-DNA, the binding signal (fold SA1 enrichment on CBS) in data set [3] amounted to 10. The molecule also displayed a binding signal (fold enrichment on CBS) in the data set with CTCF WT (human) [1] of 16. In [4], this molecule registered a binding signal (fold SA2 enrichment on CBS) of 8. Besides, in the data set on CTCF WT (human) [2], the binding signal (min (lifetime)) worked out at 50. For the same molecule, the binding signal (fold reduced lifetime vs WT) in [5] turned out to be 2.5; in data set [6], 90; in the data set on CTCF ZF9-CT (human), 25.
On to “CTCF WT (human CCCTC-binding factor, full-length) (from UniProt P49711 1-727) (natural protein)”, for which, in data set [7], the photobleaching steps in CTCF-RNA clusters was 8.8 steps and the stoichiometry N (CTCF molecules) came to 17.
In data set [8], “CTCF ΔNC (truncation mutant missing both CTCF termini, containing all 11 ZFs) (domain or fragment)” came in with a photobleaching steps in clusters on DNA (bleaching steps) of 9.
In turn, λ-DNA (non-CBS) returned a binding signal (fold lower lifetime than on CBS) in the data set on CTCF WT (human) [2] (coats DNA at 50 mM NaCl, mostly washed off at 300 mM) greater than 40.

B1: Cohesin subunit SA2 (natural protein, UniProt Q8N3U4 1-1231, looked up)
chain: MIAAPEIPTDFNLLQESETHFSSDTDFEDIEGKNQKQGKGKTCKKGKKGPAEKGKGGNGGGKPPSGPNRMNGHHQQNGVENMMLFEVVKMGKSAMQSVVDDWIESYKHDRDIALLDLINFFIQCSGCKGVVTAEMFRHMQNSEIIRKMTEEFDEDSGDYPLTMAGPQWKKFKSSFCEFIGVLVRQCQYSIIYDEYMMDTVISLLTGLSDSQVRAFRHTSTLAAMKLMTALVNVALNLSINMDNTQRQYEAERNKMIGKRANERLELLLQKRKELQENQDEIENMMNAIFKGVFVHRYRDAIAEIRAICIEEIGIWMKMYSDAFLNDSYLKYVGWTMHDKQGEVRLKCLTALQGLYYNKELNSKLELFTSRFKDRIVSMTLDKEYDVAVQAIKLLTLVLQSSEEVLTAEDCENVYHLVYSAHRPVAVAAGEFLYKKLFSRRDPEEDGMMKRRGRQGPNANLVKTLVFFFLESELHEHAAYLVDSMWDCATELLKDWECMNSLLLEEPLSGEEALTDRQESALIEIMLCTIRQAAECHPPVGRGTGKRVLTAKEKKTQLDDRTKITELFAVALPQLLAKYSVDAEKVTNLLQLPQYFDLEIYTTGRLEKHLDALLRQIRNIVEKHTDTDVLEACSKTYHALCNEEFTIFNRVDISRSQLIDELADKFNRLLEDFLQEGEEPDEDDAYQVLSTLKRITAFHNAHDLSKWDLFACNYKLLKTGIENGDMPEQIVIHALQCTHYVILWQLAKITESSSTKEDLLRLKKQMRVFCQICQHYLTNVNTTVKEQAFTILCDILMIFSHQIMSGGRDMLEPLVYTPDSSLQSELLSFILDHVFIEQDDDNNSADGQQEDEASKIEALHKRRNLLAAFCKLIVYTVVEMNTAADIFKQYMKYYNDYGDIIKETMSKTRQIDKIQCAKTLILSLQQLFNEMIQENGYNFDRSSSTFSGIKELARRFALTFGLDQLKTREAIAMLHKDGIEFAFKEPNPQGESHPPLNLAFLDILSEFSSKLLRQDKRTVYVYLEKFMTFQMSLRREDVWLPLMSYRNSLLAGGDDDTMSVISGISSRGSTVRSKKSKPSTGKRKVVEGMQLSLTEESSSSDSMWLSREQTLHTPVMMQTPQLTSTIMREPKRLRPEDSFMSVYPMQTEHHQTPLDYNRRGTSLMEDDEEPIVEDVMMSSEGRIEDLNEGMDFDTMDIDLPPSKNRRERTELKPDFFDPASIMDESVLGVSMF
modifications: LD655-CoA dye on the ybbR-tag (Sfp labeling)
notes: cohesin subunit SA2; also called SA-LD655; source: High Five (Hi5) insect cells, purified (Ni-NTA, heparin, Superose 6); not shown: ybbR, C-terminal, kept
Regarding B1, the “fold enrichment on the CBSs with CTCF” value in data set [9] was found to be 8 fold.

B2: Cohesin subunit SA1 (natural protein, UniProt Q8WVM7 1-1258, looked up)
chain: MITSELPVLQDSTNETTAHSDAGSELEETEVKGKRKRGRPGRPPSTNKKPRKSPGEKSRIEAGIRGAGRGRANGHPQQNGEGEPVTLFEVVKLGKSAMQSVVDDWIESYKQDRDIALLDLINFFIQCSGCRGTVRIEMFRNMQNAEIIRKMTEEFDEDSGDYPLTMPGPQWKKFRSNFCEFIGVLIRQCQYSIIYDEYMMDTVISLLTGLSDSQVRAFRHTSTLAAMKLMTALVNVALNLSIHQDNTQRQYEAERNKMIGKRANERLELLLQKRKELQENQDEIENMMNSIFKGIFVHRYRDAIAEIRAICIEEIGVWMKMYSDAFLNDSYLKYVGWTLHDRQGEVRLKCLKALQSLYTNRELFPKLELFTNRFKDRIVSMTLDKEYDVAVEAIRLVTLILHGSEEALSNEDCENVYHLVYSAHRPVAVAAGEFLHKKLFSRHDPQAEEALAKRRGRNSPNGNLIRMLVLFFLESELHEHAAYLVDSLWESSQELLKDWECMTELLLEEPVQGEEAMSDRQESALIELMVCTIRQAAEAHPPVGRGTGKRVLTAKERKTQIDDRNKLTEHFIITLPMLLSKYSADAEKVANLLQIPQYFDLEIYSTGRMEKHLDALLKQIKFVVEKHVESDVLEACSKTYSILCSEEYTIQNRVDIARSQLIDEFVDRFNHSVEDLLQEGEEADDDDIYNVLSTLKRLTSFHNAHDLTKWDLFGNCYRLLKTGIEHGAMPEQIVVQALQCSHYSILWQLVKITDGSPSKEDLLVLRKTVKSFLAVCQQCLSNVNTPVKEQAFMLLCDLLMIFSHQLMTGGREGLQPLVFNPDTGLQSELLSFVMDHVFIDQDEENQSMEGDEEDEANKIEALHKRRNLLAAFSKLIIYDIVDMHAAADIFKHYMKYYNDYGDIIKETLSKTRQIDKIQCAKTLILSLQQLFNELVQEQGPNLDRTSAHVSGIKELARRFALTFGLDQIKTREAVATLHKDGIEFAFKYQNQKGQEYPPPNLAFLEVLSEFSSKLLRQDKKTVHSYLEKFLTEQMMERREDVWLPLISYRNSLVTGGEDDRMSVNSGSSSSKTSSVRNKKGRPPLHKKRVEDESLDNTWLNRTDTMIQTPGPLPAPQLTSTVLRENSRPMGDQIQEPESEHGSEPDFLHNPQMQISWLGQPKLEDLNRKDRTGMNYMKVRTGVRHAVRGLMEEDAEPIFEDVMMSSRSQLEDMNEEFEDTMVIDLPPSRNRRERAELRPDFFDSAAIIEDDSGFGMPMF
modifications: LD655-CoA dye on the ybbR-tag (Sfp labeling)
notes: cohesin subunit SA1; also called SA-LD655; source: High Five (Hi5) insect cells, purified (Ni-NTA, heparin, Superose 6); not shown: ybbR, C-terminal, kept
Consider B2, for which the “fold enrichment on the CBSs with CTCF” value in data set [9] came to 10 fold.
